Test [1] has as its target Collagen I (Gibco), coated on 96-well plates (UniProt P02454). Put plainly: ELISA; Collagen I (Gibco) coated 96-well plates; LAIR-fusion proteins in PBSTA (PBS, 0.1% BSA, 0.05% Tween-20) for 4 h at room temperature; detected with HRP-conjugated polyclonal anti-6xHis.
The target of test [2] is T1, alternatively spliced extra-domain B (EIIIB) domain of fibronectin (Mus musculus (assumed; murine B16F10 …, UniProt P11276).
T1 construct: fibronectin, alternatively spliced EIIIB (extra-domain B) domain; also called FN-EIIIB
In words: not stated; Kd for EIIIB printed in the discussion; Supplementary Fig. 18b is pointed to.

In test [3] the target is T2, Collagen I (Gibco), coated on 96-well plates (UniProt P02454 152-1207; P02466 86-1125).
T2 construct: collagen type I, alpha-1(I) chain; collagen type I, alpha-2(I) chain; the two chains and rat as species are surmised; also called native collagen; collagen type I; source: bought: Gibco (collagen I coated 96-well plates)
In words: ELISA; Collagen I (Gibco) coated 96-well plates; LAIR-fusion proteins in PBSTA (PBS, 0.1% BSA, 0.05% Tween-20) for 4 h at room temperature; detected with HRP-conjugated polyclonal anti-6xHis. As to conditions: both partners purified.
T2 sequence (P02454 152-1207, chain 1 of 2): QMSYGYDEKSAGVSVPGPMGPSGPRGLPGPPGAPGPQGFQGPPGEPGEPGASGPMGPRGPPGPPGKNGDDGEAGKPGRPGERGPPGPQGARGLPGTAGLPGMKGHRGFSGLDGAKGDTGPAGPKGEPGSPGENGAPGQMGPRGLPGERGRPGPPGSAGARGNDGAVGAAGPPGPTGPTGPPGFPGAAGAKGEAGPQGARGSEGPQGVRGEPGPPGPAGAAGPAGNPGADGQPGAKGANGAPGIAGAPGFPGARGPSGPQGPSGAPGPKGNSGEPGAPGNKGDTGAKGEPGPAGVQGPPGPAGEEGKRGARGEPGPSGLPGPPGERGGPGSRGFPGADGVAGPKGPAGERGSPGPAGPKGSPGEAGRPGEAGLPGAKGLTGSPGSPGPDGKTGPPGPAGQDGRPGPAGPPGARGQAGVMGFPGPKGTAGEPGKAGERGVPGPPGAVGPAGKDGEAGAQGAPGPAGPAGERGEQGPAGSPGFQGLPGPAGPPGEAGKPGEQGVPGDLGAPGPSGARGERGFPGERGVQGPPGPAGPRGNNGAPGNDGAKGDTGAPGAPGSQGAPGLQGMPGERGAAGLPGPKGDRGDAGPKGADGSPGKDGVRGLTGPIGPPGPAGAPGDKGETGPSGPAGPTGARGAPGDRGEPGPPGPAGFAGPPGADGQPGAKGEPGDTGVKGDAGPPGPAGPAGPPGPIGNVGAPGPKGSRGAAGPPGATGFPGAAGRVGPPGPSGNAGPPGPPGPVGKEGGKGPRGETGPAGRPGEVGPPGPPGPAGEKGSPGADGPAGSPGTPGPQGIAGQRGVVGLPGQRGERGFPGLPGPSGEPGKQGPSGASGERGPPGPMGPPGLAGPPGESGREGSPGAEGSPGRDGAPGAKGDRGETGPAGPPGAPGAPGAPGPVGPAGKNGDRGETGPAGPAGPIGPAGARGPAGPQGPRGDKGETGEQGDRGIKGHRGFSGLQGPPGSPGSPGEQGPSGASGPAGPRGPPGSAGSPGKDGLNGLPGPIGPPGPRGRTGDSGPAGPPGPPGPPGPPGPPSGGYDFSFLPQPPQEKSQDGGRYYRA
T2 sequence (P02466 86-1125, chain 2 of 2): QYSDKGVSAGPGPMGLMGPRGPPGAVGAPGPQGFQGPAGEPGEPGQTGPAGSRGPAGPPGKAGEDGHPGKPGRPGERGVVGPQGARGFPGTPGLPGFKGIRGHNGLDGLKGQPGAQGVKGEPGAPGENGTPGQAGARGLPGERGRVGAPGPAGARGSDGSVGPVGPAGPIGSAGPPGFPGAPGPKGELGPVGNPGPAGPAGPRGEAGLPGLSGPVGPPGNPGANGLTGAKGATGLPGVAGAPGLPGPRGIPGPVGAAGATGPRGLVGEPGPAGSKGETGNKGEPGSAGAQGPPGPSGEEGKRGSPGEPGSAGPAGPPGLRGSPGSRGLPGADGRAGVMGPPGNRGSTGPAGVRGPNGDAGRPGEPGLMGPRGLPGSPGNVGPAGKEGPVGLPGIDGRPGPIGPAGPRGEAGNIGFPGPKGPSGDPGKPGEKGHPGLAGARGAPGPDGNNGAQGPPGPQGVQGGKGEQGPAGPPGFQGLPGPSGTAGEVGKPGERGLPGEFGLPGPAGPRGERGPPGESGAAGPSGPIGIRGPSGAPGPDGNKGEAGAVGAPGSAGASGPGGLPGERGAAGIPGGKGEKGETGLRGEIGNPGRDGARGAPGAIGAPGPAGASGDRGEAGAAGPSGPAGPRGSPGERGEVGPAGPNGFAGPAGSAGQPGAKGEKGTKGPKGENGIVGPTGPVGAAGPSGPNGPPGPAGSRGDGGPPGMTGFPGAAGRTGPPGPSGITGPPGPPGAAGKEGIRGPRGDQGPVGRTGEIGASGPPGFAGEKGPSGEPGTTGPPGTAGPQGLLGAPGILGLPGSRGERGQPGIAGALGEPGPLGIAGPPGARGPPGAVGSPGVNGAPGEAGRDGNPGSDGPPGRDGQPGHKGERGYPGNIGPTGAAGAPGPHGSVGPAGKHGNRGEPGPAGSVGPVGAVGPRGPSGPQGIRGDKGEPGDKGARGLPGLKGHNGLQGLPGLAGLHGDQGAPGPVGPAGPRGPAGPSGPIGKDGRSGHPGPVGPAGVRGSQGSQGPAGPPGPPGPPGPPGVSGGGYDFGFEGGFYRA

For test [4], the target named is Collagen I (Gibco), coated on 96-well plates (UniProt P02454 152-1207; P02466 86-1125). In words: ELISA.
Target sequence in this assay (P02454 152-1207, chain 1 of 2): as the sequence (P02454 152-1207, chain 1 of 2) above
Target sequence in this assay (P02466 86-1125, chain 2 of 2): as the sequence (P02466 86-1125, chain 2 of 2) above

Sequence of Collagen I (Gibco), coated on 96-well plates (UniProt P02454) (P02454 152-1207, chain 1 of 2): as the sequence (P02454 152-1207, chain 1 of 2) above
Sequence of Collagen I (Gibco), coated on 96-well plates (UniProt P02454) (P02466 86-1125, chain 2 of 2, further chain): as the sequence (P02466 86-1125, chain 2 of 2) above

In test [1], “LAIR-LAIR-MSA^H464Q-IL2-his (from UniProt Q8BG84 22-144; Q8BG84 22-144)” yielded a dissociation constant (Kd) of 13 nM.

As to “LAIR-IL2-his (from UniProt Q8BG84 22-144)”, the Kd in test [1] is 220 nM.

B1: NJB2-MSA^H464Q-IL2 (VHH)
VHH: QVQLVETGGGLVQAGGSLRLSCAASGSTFSHNAGGWYRQAPEKQRELVAGISSDGNINYADSVKDRFTISRDNASNTMYLQMNNLKPEDTAVYVCNIRGSYGNTYYSRWGQGTQVTVSS
notes: nanobody NJB2 (15 kD); mouse serum albumin (MSA) with H464Q; interleukin-2 (IL-2); 98 kD; MSA^H464Q incorporated between the nanobody and IL-2; source: suspension HEK293, transfected, purified
As to B1, the Kd in test [2] was 1 nM.

B2: LAIRx-LAIRx-MSA^H464Q-IL2-his (other)
chain: QEGSLPDITIFPNSSLMISQGTFVTVVCSYSDKHDLYNMVALAKDGSTFMEKSTEPYKTEDEFEIGPVNETITGHYSCIYSKGITWSERSKTLELKVIKENVIQTPAPGPTSDTSWLKTYSIYQEGSLPDITIFPNSSLMISQGTFVTVVCSYSDKHDLYNMVALAKDGSTFMEKSTEPYKTEDEFEIGPVNETITGHYSCIYSKGITWSERSKTLELKVIKENVIQTPAPGPTSDTSWLKTYSIYEAHKSEIAHRYNDLGEQHFKGLVLIAFSQYLQKCSYDEHAKLVQEVTDFAKTCVADESAANCDKSLHTLFGDKLCAIPNLRENYGELADCCTKQEPERNECFLQHKDDNPSLPPFERPEAEAMCTSFKENPTTFMGHYLHEVARRHPYFYAPELLYYAEQYNEILTQCCAEADKESCLTPKLDGVKEKALVSSVRQRMKCSSMQKFGERAFKAWAVARLSQTFPNADFAEITKLATDLTKVNKECCHGDLLECADDRAELAKYMCENQATISSKLQTCCDKPLLKKAHCLSEVEHDTMPADLPAIAADFVEDQEVCKNYAEAKDVFLGTFLYEYSRRHPDYSVSLLLRLAKKYEATLEKCCAEANPPACYGTVLAEFQPLVEEPKNLVKTNCDLYEKLGEYGFQNAILVRYTQKAPQVSTPTLVEAARNLGRVGTKCCTLPEDQRLPCVEDYLSAILNRVCLLQEKTPVSEHVTKCCSGSLVERRPCFSALTVDETYVPKEFKAETFTFHSDICTLPEKEKQIKKQTALAELVKHKPKATAEQLKTVMDDFAQFLDTCCKAADKDTCFSTEGPNLVTRCKDALAAPTSSSTSSSTAEAQQQQQQQQQQQQHLEQLLMDLQELLSRMENYRNLKLPRMLTFKFYLPKQATELKDLQCLEDELGPLRHVLDLTQSKSFQLEDAENFISNIRVTVVKLKGSDNTFECQFDDESATVVDFLRRWIAFCQSIISTSPQ
Consider B2, for which the dissociation constant (Kd) in test [3] was over 1000 nM.

B3: LAIR-LAIRx-MSA^H464Q-his (other)
chain: QEGSLPDITIFPNSSLMISQGTFVTVVCSYSDKHDLYNMVRLEKDGSTFMEKSTEPYKTEDEFEIGPVNETITGHYSCIYSKGITWSERSKTLELKVIKENVIQTPAPGPTSDTSWLKTYSIYQEGSLPDITIFPNSSLMISQGTFVTVVCSYSDKHDLYNMVALAKDGSTFMEKSTEPYKTEDEFEIGPVNETITGHYSCIYSKGITWSERSKTLELKVIKENVIQTPAPGPTSDTSWLKTYSIYEAHKSEIAHRYNDLGEQHFKGLVLIAFSQYLQKCSYDEHAKLVQEVTDFAKTCVADESAANCDKSLHTLFGDKLCAIPNLRENYGELADCCTKQEPERNECFLQHKDDNPSLPPFERPEAEAMCTSFKENPTTFMGHYLHEVARRHPYFYAPELLYYAEQYNEILTQCCAEADKESCLTPKLDGVKEKALVSSVRQRMKCSSMQKFGERAFKAWAVARLSQTFPNADFAEITKLATDLTKVNKECCHGDLLECADDRAELAKYMCENQATISSKLQTCCDKPLLKKAHCLSEVEHDTMPADLPAIAADFVEDQEVCKNYAEAKDVFLGTFLYEYSRRHPDYSVSLLLRLAKKYEATLEKCCAEANPPACYGTVLAEFQPLVEEPKNLVKTNCDLYEKLGEYGFQNAILVRYTQKAPQVSTPTLVEAARNLGRVGTKCCTLPEDQRLPCVEDYLSAILNRVCLLQEKTPVSEHVTKCCSGSLVERRPCFSALTVDETYVPKEFKAETFTFHSDICTLPEKEKQIKKQTALAELVKHKPKATAEQLKTVMDDFAQFLDTCCKAADKDTCFSTEGPNLVTRCKDALA
Take B3: the Kd in test [4] is 158 nM.

B4: LAIR-LAIR-MSA^H464Q-his (other)
chain: QEGSLPDITIFPNSSLMISQGTFVTVVCSYSDKHDLYNMVRLEKDGSTFMEKSTEPYKTEDEFEIGPVNETITGHYSCIYSKGITWSERSKTLELKVIKENVIQTPAPGPTSDTSWLKTYSIYQEGSLPDITIFPNSSLMISQGTFVTVVCSYSDKHDLYNMVRLEKDGSTFMEKSTEPYKTEDEFEIGPVNETITGHYSCIYSKGITWSERSKTLELKVIKENVIQTPAPGPTSDTSWLKTYSIYEAHKSEIAHRYNDLGEQHFKGLVLIAFSQYLQKCSYDEHAKLVQEVTDFAKTCVADESAANCDKSLHTLFGDKLCAIPNLRENYGELADCCTKQEPERNECFLQHKDDNPSLPPFERPEAEAMCTSFKENPTTFMGHYLHEVARRHPYFYAPELLYYAEQYNEILTQCCAEADKESCLTPKLDGVKEKALVSSVRQRMKCSSMQKFGERAFKAWAVARLSQTFPNADFAEITKLATDLTKVNKECCHGDLLECADDRAELAKYMCENQATISSKLQTCCDKPLLKKAHCLSEVEHDTMPADLPAIAADFVEDQEVCKNYAEAKDVFLGTFLYEYSRRHPDYSVSLLLRLAKKYEATLEKCCAEANPPACYGTVLAEFQPLVEEPKNLVKTNCDLYEKLGEYGFQNAILVRYTQKAPQVSTPTLVEAARNLGRVGTKCCTLPEDQRLPCVEDYLSAILNRVCLLQEKTPVSEHVTKCCSGSLVERRPCFSALTVDETYVPKEFKAETFTFHSDICTLPEKEKQIKKQTALAELVKHKPKATAEQLKTVMDDFAQFLDTCCKAADKDTCFSTEGPNLVTRCKDALA
B4 came in with a Kd in test [4] of 20 nM.

B5: LAIRx-IL2-his (other)
chain: QEGSLPDITIFPNSSLMISQGTFVTVVCSYSDKHDLYNMVALAKDGSTFMEKSTEPYKTEDEFEIGPVNETITGHYSCIYSKGITWSERSKTLELKVIKENVIQTPAPGPTSDTSWLKTYSIYAPTSSSTSSSTAEAQQQQQQQQQQQQHLEQLLMDLQELLSRMENYRNLKLPRMLTFKFYLPKQATELKDLQCLEDELGPLRHVLDLTQSKSFQLEDAENFISNIRVTVVKLKGSDNTFECQFDDESATVVDFLRRWIAFCQSIISTSPQ
B5 displayed a Kd in test [3] of over 1000 nM.

For the origin of these results see paper PMC8748612, “Maximizing response to intratumoral immunotherapy in mice by tuning local retention” (Nature Communications, 2022).
